Results: PMC10624354

Target: T1, PIF4 (Arabidopsis thaliana, UniProt Q8W2F3 1-430)
T1 sequence: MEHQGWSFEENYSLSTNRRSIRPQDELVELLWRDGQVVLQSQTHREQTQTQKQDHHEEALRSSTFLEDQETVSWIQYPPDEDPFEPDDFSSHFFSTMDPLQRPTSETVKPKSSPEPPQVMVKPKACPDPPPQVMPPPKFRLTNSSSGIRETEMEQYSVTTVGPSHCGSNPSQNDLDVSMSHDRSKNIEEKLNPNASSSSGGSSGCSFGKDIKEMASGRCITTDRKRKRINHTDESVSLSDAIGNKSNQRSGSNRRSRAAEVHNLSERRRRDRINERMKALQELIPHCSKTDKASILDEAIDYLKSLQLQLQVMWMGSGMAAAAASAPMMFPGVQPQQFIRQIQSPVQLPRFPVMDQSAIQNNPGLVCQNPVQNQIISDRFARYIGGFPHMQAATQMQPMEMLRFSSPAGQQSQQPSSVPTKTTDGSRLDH
Test: EMSA

B1: YUC8pro (WT) (dsDNA)
DNA 1: TCTTTTTCTTCCCCACGTGGCTTCCTCTCGTTGGTCCCACAA
DNA 2: TTGTGGGACCAACGAGAGGAAGCCACGTGGGGAAGAAAAAGA
binding result: binds
